Measured values as given in the MegaScale stability set (Tsuboyama et al. 2023).

B1: EEHEE_rd4_0363 (parent)
chain: VTVDIKGMEYHFDNPEEAKKFAERMAKELGGELKVENGTLKVE

Variants of: B1
Experiment: folding stability dG (cDNA display proteolysis); higher = more stable
Conditions: PBS, room temperature

Row | Variant | folding stability dG [kcal/mol]
1 | VTVDIKGMEYHFDNPEEWKKFAERMAKELGGELKVENGTLKVE [A18W] | 0.824
2 | VTVDIKGMEYHFDNPEEKKKFAERMAKELGGELKVENGTLKVE [A18K] | -0.683
3 | VTVDIKGMEYHFDNPEEHKKFAERMAKELGGELKVENGTLKVE [A18H] | -0.269
4 | VTVDIKGMEYHFDNPEEQKKFAERMAKELGGELKVENGTLKVE [A18Q] | -0.376
5 | VTVDIKGMEYHFDNPEETKKFAERMAKELGGELKVENGTLKVE [A18T] | -0.52
6 | VTVDIKGMEYHFDNPEESKKFAERMAKELGGELKVENGTLKVE [A18S] | -0.064
7 | VTVDIKGMEYHFDNPEEYKKFAERMAKELGGELKVENGTLKVE [A18Y] | 0.753
8 | VTVDIKGMEYHFDNPEEMKKFAERMAKELGGELKVENGTLKVE [A18M] | 0.379
9 | VTVDIKGMEYHFDNPEECKKFAERMAKELGGELKVENGTLKVE [A18C] | 1.03
10 | VTVDIKGMEYHFDNPEEIKKFAERMAKELGGELKVENGTLKVE [A18I] | -0.262
11 | VTVDIKGMEYHFDNPEEGKKFAERMAKELGGELKVENGTLKVE [A18G] | 1.46
12 | VTVDIKGMEYHFDNPEEEKKFAERMAKELGGELKVENGTLKVE [A18E] | -0.431
13 | VTVDIKGMEYHFDNPEEVKKFAERMAKELGGELKVENGTLKVE [A18V] | -0.372
14 | VTVDIKGMEYHFDNPEELKKFAERMAKELGGELKVENGTLKVE [A18L] | 0.471
15 | VTVDIKGMEYHFDNPEERKKFAERMAKELGGELKVENGTLKVE [A18R] | -0.072
16 | VTVDIKGMEYHFDNPEEFKKFAERMAKELGGELKVENGTLKVE [A18F] | 0.719
17 | VTVDIKGMEYHFDNPEEADKFAERMAKELGGELKVENGTLKVE [K19D] | 0.524
18 | VTVDIKGMEYHFDNPEEAAKFAERMAKELGGELKVENGTLKVE [K19A] | 1.65
19 | VTVDIKGMEYHFDNPEEAIKFAERMAKELGGELKVENGTLKVE [K19I] | 2.38
20 | VTVDIKGMEYHFDNPEEAQKFAERMAKELGGELKVENGTLKVE [K19Q] | 2.17

Row | Variant | folding stability dG [kcal/mol]
21 | VTVDIKGMEYHFDNPEEATKFAERMAKELGGELKVENGTLKVE [K19T] | 1.71
22 | VTVDIKGMEYHFDNPEEAYKFAERMAKELGGELKVENGTLKVE [K19Y] | 2.87
23 | VTVDIKGMEYHFDNPEEAWKFAERMAKELGGELKVENGTLKVE [K19W] | 3.27
24 | VTVDIKGMEYHFDNPEEAHKFAERMAKELGGELKVENGTLKVE [K19H] | 1.98
25 | VTVDIKGMEYHFDNPEEALKFAERMAKELGGELKVENGTLKVE [K19L] | 2.74
26 | VTVDIKGMEYHFDNPEEAFKFAERMAKELGGELKVENGTLKVE [K19F] | 2.67
27 | VTVDIKGMEYHFDNPEEARKFAERMAKELGGELKVENGTLKVE [K19R] | 2.65
28 | VTVDIKGMEYHFDNPEEANKFAERMAKELGGELKVENGTLKVE [K19N] | 1.38
29 | VTVDIKGMEYHFDNPEEAVKFAERMAKELGGELKVENGTLKVE [K19V] | 1.96
30 | VTVDIKGMEYHFDNPEEAEKFAERMAKELGGELKVENGTLKVE [K19E] | 1.32
31 | VTVDIKGMEYHFDNPEEASKFAERMAKELGGELKVENGTLKVE [K19S] | 1.35
32 | VTVDIKGMEYHFDNPEEAGKFAERMAKELGGELKVENGTLKVE [K19G] | 0.835
33 | VTVDIKGMEYHFDNPEEAMKFAERMAKELGGELKVENGTLKVE [K19M] | 2.67
34 | VTVDIKGMEYHFDNPEEAKKCAERMAKELGGELKVENGTLKVE [F21C] | 0.708
35 | VTVDIKGMEYHFDNPEEAKKEAERMAKELGGELKVENGTLKVE [F21E] | -0.293
36 | VTVDIKGMEYHFDNPEEAKKAAERMAKELGGELKVENGTLKVE [F21A] | -0.089
37 | VTVDIKGMEYHFDNPEEAKKHAERMAKELGGELKVENGTLKVE [F21H] | -0.264
38 | VTVDIKGMEYHFDNPEEAKKLAERMAKELGGELKVENGTLKVE [F21L] | -0.142
39 | VTVDIKGMEYHFDNPEEAKKIAERMAKELGGELKVENGTLKVE [F21I] | -0.454
40 | VTVDIKGMEYHFDNPEEAKKMAERMAKELGGELKVENGTLKVE [F21M] | -0.083

Row | Variant | folding stability dG [kcal/mol]
41 | VTVDIKGMEYHFDNPFEAKKFAERMAKELGGELKVENGTLKVE [E16F] | 1.7
42 | VTVDIKGMEYHFDNPAEAKKFAERMAKELGGELKVENGTLKVE [E16A] | 1.78
43 | VTVDIKGMEYHFDNPNEAKKFAERMAKELGGELKVENGTLKVE [E16N] | 1.41
44 | VTVDIKGMEYHFDNPSEAKKFAERMAKELGGELKVENGTLKVE [E16S] | 1.58
45 | VTVDIKGMEYHFDNPHEAKKFAERMAKELGGELKVENGTLKVE [E16H] | 1.63
46 | VTVDIKGMEYHFDNPDEAKKFAERMAKELGGELKVENGTLKVE [E16D] | 2.02
47 | VTVDIKGMEYHFDNPQEAKKFAERMAKELGGELKVENGTLKVE [E16Q] | 1.67
48 | VTVDIKGMEYHFDNPTEAKKFAERMAKELGGELKVENGTLKVE [E16T] | 1.7
49 | VTVDIKGMEYHFDNPREAKKFAERMAKELGGELKVENGTLKVE [E16R] | 1.27
50 | VTVDIKGMEYHFDNPWEAKKFAERMAKELGGELKVENGTLKVE [E16W] | 1.98
51 | VTVDIKGMEYHFDNPLEAKKFAERMAKELGGELKVENGTLKVE [E16L] | 1.65
52 | VTVDIKGMEYHFDNPGEAKKFAERMAKELGGELKVENGTLKVE [E16G] | 1.24
53 | VTVDIKGMEYHFDNPKEAKKFAERMAKELGGELKVENGTLKVE [E16K] | 1.33
54 | VTVDIKGMEYHFDNPPEAKKFAERMAKELGGELKVENGTLKVE [E16P] | -0.084
55 | VTVDIKGMEYHFDNPCEAKKFAERMAKELGGELKVENGTLKVE [E16C] | 2.17
56 | VTVDIKGMEYHFDNPVEAKKFAERMAKELGGELKVENGTLKVE [E16V] | 1.74
57 | VTVDIKGMEYHFDNPMEAKKFAERMAKELGGELKVENGTLKVE [E16M] | 1.71
58 | VTVDIKGMEYHFDNPYEAKKFAERMAKELGGELKVENGTLKVE [E16Y] | 1.79
59 | VTVDIKGMEYHFDNPIEAKKFAERMAKELGGELKVENGTLKVE [E16I] | 1.71
